Reference: the RNAGym collection of RNA variant scans (doi:10.1073/pnas.2313332121)
This sample holds only a part of the variants without activity.

B1: TPR 5TU (parent)
chain: GGAUCUUCUCGAUCUAACAAAAAAGACAAAUCUGCCACAAAGCUUGAGAGCAUCUUCGGAUGCAGAGGCGGCAGCCUUCGGUGGCGCGAUAGCGCCAACGUUCUCAACUAUGACACGCAAAACGCGUGCUCCGUUGAAUGGAGUUUAUCAUG

Variants of: B1
Experiment: polymerase ribozyme fitness, log enrichment relative to wild type (log ratio); higher = more active; in vitro selection for triplet polymerase activity
Summary of the method: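 To select mutant libraries of each subunit of a heterodimeric triplet polymerase ribozyme, built by PCR and transcribed, each was annealed with a biotinylated primer, partner subunit and triplets, then incubated frozen at −7 °C. Extended constructs were gel-excised, captured on streptavidin beads and amplified by RT-PCR, in one round carried out in triplicate. Illumina sequencing of input and output libraries kept genotypes with ≥10 input reads and ≥1 read per output. Fitness is the base-2 logarithm of genotype enrichment relative to wild-type enrichment, from inverse-variance-weighted replicate averages.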

Variant | polymerase ribozyme fitness (log ratio)
GGAUCUUCUCGAUCUAACAAGAAAGACAAAUCUGCCACAAAGCUUGAGAGCAUCUUCGGAUGCAGAGGCGGCAGCCUUCGUUGGCUCGAUAGCGCCAACGUUCUCAACUAUGACACGCAAAAAGCGUGCUCCGUUGAAUGGAGUUUAUCAUG [A21G G81U G86U C123A] | -1.08
GGAUCUUCUCGGUCUAACAAAAAAGACAAAUCUGCCACAAAGCUUGAGAGCAUCUUGGGAUGCAGAGGCGGCAGCCUUCGGUUGCGCGAUAGCGCCAACGUUCUCAACUAUGACGCGCAAAACGCGUGCUCCGUUGAAUGGAGUUUAUCAUG [A12G C57G G83U A115G] | -2.09
GGAUCUUCUCGAUCUAACAACAAAGACAAAUCUGCCACAAAGCUUGAGAGCAUCUUCGGAUGCAGAGGCGGCAGCCUUCGGUGGCGCGAUAGCGUCAACGUUCUCAACUAUGACACGCAAAACGCGUGAUCCGUUGAAUGGAGUUUAUCAUG [A21C C95U C129A] | -2.89
GGAUCUUCUCGAUCUAACAAAAAAGACAAAUCUGCCACAAAGCUUGAGAGCAUCUUCGGAUGCAUAGGCGCCUGCCUUCGGUGGCGCGAUAGCGCCAACGUUCUCAACUAUGACACGCAAAUCGCAUGCUCCGUUGCAUGGAGUUAAUCAUG [G65U G71C A73U A122U G126A A137C U146A] | ≤ -4.2
GGAUCUUCUCGAUCUAACAAAAAAGACAAAUCUGCCACAAAGCUUGAGAGCAUCAUCGGAUGCAGAGGCGGCAGCCUUCGGUGGCGCGAUAGGGCCAACGUUCUCAACUAUGACACGCAAAACGCGUGCUCCGUUGAAUGCAGUUUAUCAUG [U55A C93G G141C] | -3.82
GGAUCUUCUCGCUCUAUCAAAAAAGACAAAUCUGCCACAAAGCUUGAGAGCAACUUCGGAUGCAGAGGCGGCAGCCUUCGGUGGCGCGAUAGCGCAAACGUUCUCAACUAUGACACGCAAAACGCGUGCUCCGUUGAAGGGAGUUUAUCAUG [A12C A17U U53A C96A U139G] | -3.83
GGAUCUUCUCGAUCUAACAAAAAAGACAAAUCUGCCACAAAGCUUGAGAGCAUCUUCCGAUGCAGAGGCGGCAGCCUUCGGUGGCCCGUUAGCGCCAACGUUCUCAACUAUGACACGCAAAACGCGUGCUCCGUUGAAUGGAGUUUAUCAUG [G58C G86C A89U] | -3.91
GGAUCUUCUCGAUCUAACAAAAAAGAGAAAUCUGCUACAAAGCUUGAGAUCAUCUUCGGAUGCAGAGGCGGCUGCCUUCGGAGGCGCGAUAGCGUCAACGUUCUCAACUAUGACACGCAAAACGCGUGCUCCGUUGAAUGGAGUUUAUCAUG [C27G C36U G50U A73U U82A C95U] | ≤ -4.2
GGAUCUUCUCGAUCUAACAAAAAAGACAAAUCUGCCACAAAGCUUGAGAGCAUCUUCGGAUGCAGAGGCGGCAGCCUUCGGUGGCGCGAUAGCGCCAACGUUCUCAACGAUGACACGAAAAACGGGUGCUCCGUUGAAUGGAGUUUAUCAUG [U109G C118A C125G] | -3.62
GGAUUUUCUCGAUCUAACAAGAAAGACAAAUCUGCCACAAAGCUUGAGAGCAUCUUCGCAUGCAGAGGCGGCAGCCUUCGGUGGCGCGAUAGGGCCAACGUUCUCAACUAUGACACGCAAAACGCGUGCUCCGUUGAAUGGAGUUUAUCAUG [C5U A21G G59C C93G] | -1.3
GGAUCUUCUCGAUCUAACAAAAAAGACAAAUCUGCCACAAAGCUUGAGCGCAUCUUCGGAUGCAGAGCCGGCAGCCUUCGCUGGCGCGAUAGAGCCAACGUUCUCAACUAUGACACGCAAAACGCAUGCUCCGUUGAAUGGAGUUUAUCAUG [A49C G68C G81C C93A G126A] | ≤ -4.2
GGAUCUUCUCGAUCUAACAAACAAGACUAAUCUGCCACAAAGCUUGAGAGCAUCUUCGGAUGCAGAGGCGGCAGCCUUCGGUGGCGCGAUAGCGCCAACGUUCUCAACUAUGACACGCAAUACGCGUGCUCCGUUGAAUGGAGUUUAUCAUG [A22C A28U A121U] | ≤ -4.2
GGAUCUUCUCGAUCUAACAAAAAAGACAAAUCUGCCACAAAGCUUGAGAGAAUCUUCGGAUGCAGAGGCGGCAGCCUUCGGUGGUGCGAUAGCGCCAACGUUCUCAACUAUGACACGCAAAACGCGUGCUCCGUUGAAUGGAGUUUAUCAUG [C51A C85U] | -1.01
GGAUCUUCUCGAUCUAACAAAAAAGACAGAUCUGCCACAAAGCUUGAGAGCAUCUUCGGAUGCAGAGGCGGCAGCCUUCGGUGUCGCGAUAGCGCCAACGUUCUCAACUAUGACACACAAAACGCGUGCUCCGUUGAAUGGAGUUUAUCAUG [A29G G84U G117A] | ≤ -4.2
GGAUCUUCUCGAUCUAACAAAAAAGACAAAUCUGCCACAAAGCUUGAGAGCAUCUUCGGAUGCAGAGGCGGCGGCCUUCGGUGGUGCAAUAGCGCCAACGUUCUCAACUAUGACACGCUAAACGCGUGCUCCGAUGAAUCGAGUUUAUCAUG [A73G C85U G88A A119U U134A G140C] | ≤ -4.2
GGAUCUUCUCGAUCUAACAAAAAAGACAAAUCUGCCACAAAGCUUGAGAGCAUCUUCGCAUGCAGAGGCGGCAGCCUUCGGUGGCGCGAUAGCGCCAACGUUCUCAACUAUGACACGCAAAACGCAUGCUCCGUUGAAUGGAGUUUAUCAUG [G59C G126A] | 0.0741
GGAUCUUCUCGAUCUAAGAAAACAGACAGAUCUGCCACAAAGCUUGAGAGUAUCUUCGGAUGCAGAGGCGGGAGCCUUCGAUGGCGCGAUAGCGCCAACGUUCUCAACUAUGACACGCAAAACGCGUGCUCCGUUGAAUUGAGUUUAUCAUG [C18G A23C A29G C51U C72G G81A G140U] | ≤ -4.2
GGAUCUUCUCGAUCUAACAAAAAAGACAAGUCUGCCACAAAGCUUGAGAGCAUCUUCGGAUGCAGAGGCGGCAGCCUUCGGUGGCGGGAUAGCGCCAACGCUCUCAACUAUGACACGCAAAGCGCGUGCUCCGUUGAAUGGAGUUUAUCAUG [A30G C87G U101C A122G] | ≤ -4.2
GGAUCUUCUCGAGCUAACAAAAAAGACAAAUCUGCCACAAAGCUUGAGAGCAUCUUCGGAUGCAGAGGCGGCAGCCUUCGGUGGCGCGAGAGCGCCAACGUUCUCAACUAUGACACGCAAAACGCGUGCUCCGUUGAAUGGAGUUUAUCAUG [U13G U90G] | -4.04
